The Human Domainome abundance scans (Beltran et al. 2025)
± gives the uncertainty stated by the source.

B1: CD2-associated protein, residues 1 to 59; numbered along this chain, Q9Y5K6 (parent)
chain: MVDYIVEYDYDAVHDDELTIRVGEIIRNVKKLQEEGWLEGELNGRRGMFPDNFVKEIKR

Variants of: B1
Assay: abundance fitness (aPCA) (normalised: wild type 0, dead -1); higher = more abundant; growth selection in yeast, the domain comes from the species named
Conditions: Homo sapiens
In the case of MVDYIVEYDYDAVHDDELTIRVGEIIRNVKELQEEGWLEGELNGRRGMFPDNFVKEIKR [K31E], the abundance fitness is reported as -0.061 ± 0.11.
MVDYIVEYDYDAVHDDELTIRVGEIIRNVKCLQEEGWLEGELNGRRGMFPDNFVKEIKR [K31C] showed an abundance fitness of 0.109 ± 0.34.
MVDYIVEYDYDAVHDDELTIRVGEIIRNVKALQEEGWLEGELNGRRGMFPDNFVKEIKR [K31A] gave an abundance fitness of 0.053 ± 0.11.
In the case of MVDYIVEYDYDAVHDDELTIRVGETIRNVKKLQEEGWLEGELNGRRGMFPDNFVKEIKR [I25T], the abundance fitness is reported as -0.064 ± 0.12.
In the case of MVDYIVEYDYDAVHDDELTIRVGESIRNVKKLQEEGWLEGELNGRRGMFPDNFVKEIKR [I25S], the abundance fitness is reported as -0.541 ± 0.14.
For MVDYIVEYDYDAVHDDELTIRVGEEIRNVKKLQEEGWLEGELNGRRGMFPDNFVKEIKR [I25E], the abundance fitness was -0.516 ± 0.47.
In the case of MVDYIVEYDYDAVHDDELTIRVGEMIRNVKKLQEEGWLEGELNGRRGMFPDNFVKEIKR [I25M], the abundance fitness is reported as -0.28 ± 0.15.
Work on MVDYIVEYDYDAVHDDELTIRVGERIRNVKKLQEEGWLEGELNGRRGMFPDNFVKEIKR [I25R] yielded an abundance fitness of -0.079 ± 0.071.
MVDYIVEYDYDAVHDDELTIRVGEKIRNVKKLQEEGWLEGELNGRRGMFPDNFVKEIKR [I25K] gave an abundance fitness of -0.043 ± 0.2.
MVDYIVEYDYDAVHDDELTIRVGEYIRNVKKLQEEGWLEGELNGRRGMFPDNFVKEIKR [I25Y] gave an abundance fitness of -0.294 ± 0.18.
MVDYIVEYDYDAVHDDELTIRVGEQIRNVKKLQEEGWLEGELNGRRGMFPDNFVKEIKR [I25Q] showed an abundance fitness of -0.338 ± 0.13.
In the case of MVDYIVEYDYDAVHDDELTIRVGEAIRNVKKLQEEGWLEGELNGRRGMFPDNFVKEIKR [I25A], the abundance fitness is reported as -0.667 ± 0.22.
Work on MVDYIVEYDYDAVHDDELTIRVGEGIRNVKKLQEEGWLEGELNGRRGMFPDNFVKEIKR [I25G] yielded an abundance fitness of -0.718 ± 0.17.
Variant MVDYIVEYDYDAVHDDELTIRVGEVIRNVKKLQEEGWLEGELNGRRGMFPDNFVKEIKR [I25V] has an abundance fitness of -0.088 ± 0.13.
In the case of MVDYIVEYDYDAVHDDELTIRVGEWIRNVKKLQEEGWLEGELNGRRGMFPDNFVKEIKR [I25W], the abundance fitness is reported as -0.519 ± 0.12.
With MVDYIVEYDYDAVHDDELTIRVGEPIRNVKKLQEEGWLEGELNGRRGMFPDNFVKEIKR [I25P] the abundance fitness was -0.845 ± 0.25.
MVDYIVEYDYDAVHDDELTIRVGEHIRNVKKLQEEGWLEGELNGRRGMFPDNFVKEIKR [I25H] showed an abundance fitness of -0.146 ± 0.26.
For MVDYIVEYDYDAVHDDELTIRVGECIRNVKKLQEEGWLEGELNGRRGMFPDNFVKEIKR [I25C], the abundance fitness was -0.392 ± 0.23.
In the case of MVDYIVEYDYDAVHDDELTIRVGEIIRNVFKLQEEGWLEGELNGRRGMFPDNFVKEIKR [K30F], the abundance fitness is reported as -0.158 ± 0.14.
Variant MVDYIVEYDYDAVHDDELTIRVGEIIRNVIKLQEEGWLEGELNGRRGMFPDNFVKEIKR [K30I] has an abundance fitness of -0.274 ± 0.12.
Work on MVDYIVEYDYDAVHDDELTIRVGEIIRNVRKLQEEGWLEGELNGRRGMFPDNFVKEIKR [K30R] yielded an abundance fitness of -0.071 ± 0.068.
For MVDYIVEYDYDAVHDDELTIRVGEIIRNVVKLQEEGWLEGELNGRRGMFPDNFVKEIKR [K30V], the abundance fitness was -0.166 ± 0.13.
MVDYIVEYDYDAVHDDELTIRVGEIIRNVEKLQEEGWLEGELNGRRGMFPDNFVKEIKR [K30E] gave an abundance fitness of 0.007 ± 0.18.
Variant MVDYIVEYDYDAVHDDELTIRVGEIIRNVWKLQEEGWLEGELNGRRGMFPDNFVKEIKR [K30W] has an abundance fitness of -0.192 ± 0.091.
In the case of MVDYIVEYDYDAVHDDELTIRVGEIIRNVGKLQEEGWLEGELNGRRGMFPDNFVKEIKR [K30G], the abundance fitness is reported as -0.127 ± 0.1.
In the case of MVDYIVEYDYDAVHDDELTIRVGEIIRNVMKLQEEGWLEGELNGRRGMFPDNFVKEIKR [K30M], the abundance fitness is reported as 0.018 ± 0.11.
MVDYIVEYDYDAVHDDELTIRVGEIIRNVQKLQEEGWLEGELNGRRGMFPDNFVKEIKR [K30Q] showed an abundance fitness of -0.31 ± 0.19.
Work on MVDYIVEYDYDAVHDDELTIRVGEIIRNVTKLQEEGWLEGELNGRRGMFPDNFVKEIKR [K30T] yielded an abundance fitness of -0.07 ± 0.11.
For MVDYIVEYDYDAVHDDELTIRVGEIIRNVLKLQEEGWLEGELNGRRGMFPDNFVKEIKR [K30L], the abundance fitness was -0.191 ± 0.09.
MVDYIVEYDYDAVHDDELTIRVGEIIRNVNKLQEEGWLEGELNGRRGMFPDNFVKEIKR [K30N] showed an abundance fitness of -0.113 ± 0.16.
For MVDYIVEYDYDAVHDDELTIRVGEIIRNVAKLQEEGWLEGELNGRRGMFPDNFVKEIKR [K30A], the abundance fitness was -0.181 ± 0.13.
With MVDYIVEYDYDAVHDDELTIRVGEIIRNVCKLQEEGWLEGELNGRRGMFPDNFVKEIKR [K30C] the abundance fitness was -0.148 ± 0.12.
With MVDYIVEYDYDAVHDDELTIRVGEIIRNVHKLQEEGWLEGELNGRRGMFPDNFVKEIKR [K30H] the abundance fitness was 0.111 ± 0.19.
In the case of MVDYIVEYDYDAVHDDELTIRVGEIIRNVDKLQEEGWLEGELNGRRGMFPDNFVKEIKR [K30D], the abundance fitness is reported as -0.22 ± 0.18.
MVDYIVEYDYDAVHDDELTIRVGEIIRNVSKLQEEGWLEGELNGRRGMFPDNFVKEIKR [K30S] gave an abundance fitness of -0.135 ± 0.095.
MVDYIVEYDYDAVHDDELTIRVGEIIRNTKKLQEEGWLEGELNGRRGMFPDNFVKEIKR [V29T] gave an abundance fitness of -0.378 ± 0.2.
MVDYIVEYDYDAVHDDELTIRVGEIIRNDKKLQEEGWLEGELNGRRGMFPDNFVKEIKR [V29D] showed an abundance fitness of -0.866 ± 0.35.
Work on MVDYIVEYDYDAVHDDELTIRVGEIIRNMKKLQEEGWLEGELNGRRGMFPDNFVKEIKR [V29M] yielded an abundance fitness of -0.883 ± 0.43.
In the case of MVDYIVEYDYDAVHDDELTIRVGEIIRNRKKLQEEGWLEGELNGRRGMFPDNFVKEIKR [V29R], the abundance fitness is reported as -1.04 ± 0.31.
Work on MVDYIVEYDYDAVHDDELTIRVGEIIRNEKKLQEEGWLEGELNGRRGMFPDNFVKEIKR [V29E] yielded an abundance fitness of -0.251 ± 0.24.
Work on MVDYIVEYDYDAVHDDELTIRVGEIIRNLKKLQEEGWLEGELNGRRGMFPDNFVKEIKR [V29L] yielded an abundance fitness of -0.62 ± 0.22.
MVDYIVEYDYDAVHDDELTIRVGEIIRNGKKLQEEGWLEGELNGRRGMFPDNFVKEIKR [V29G] showed an abundance fitness of -0.261 ± 0.11.
Variant MVDYIVEYDYDAVHDDELTIRVGEIIRNCKKLQEEGWLEGELNGRRGMFPDNFVKEIKR [V29C] has an abundance fitness of -0.167 ± 0.46.
In the case of MVDYIVEYDYDAVHDDELTIRVGEIIRNAKKLQEEGWLEGELNGRRGMFPDNFVKEIKR [V29A], the abundance fitness is reported as -0.069 ± 0.1.
With MVDYIVEYDYDAVHDDELTIRVGEIIRNIKKLQEEGWLEGELNGRRGMFPDNFVKEIKR [V29I] the abundance fitness was -0.441 ± 0.23.
